Changes are numbered by the printed parent chain.
T1: Rhesus GIPR (rhesus, UniProt F7E1R9 22-466)
T1 sequence: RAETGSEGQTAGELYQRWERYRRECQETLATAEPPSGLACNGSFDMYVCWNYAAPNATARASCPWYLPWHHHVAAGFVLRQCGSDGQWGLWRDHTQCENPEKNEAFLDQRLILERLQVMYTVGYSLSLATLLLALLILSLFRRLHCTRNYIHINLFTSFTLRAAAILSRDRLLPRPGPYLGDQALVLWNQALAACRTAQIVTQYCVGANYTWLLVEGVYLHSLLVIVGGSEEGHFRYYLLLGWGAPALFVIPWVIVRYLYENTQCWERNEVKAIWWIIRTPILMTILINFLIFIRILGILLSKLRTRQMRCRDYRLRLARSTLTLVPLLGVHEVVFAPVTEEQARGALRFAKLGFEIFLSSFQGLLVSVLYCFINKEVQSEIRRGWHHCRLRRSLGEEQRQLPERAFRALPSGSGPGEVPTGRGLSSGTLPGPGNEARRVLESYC

B1: 5C2.007 (antibody, human IgG1, kappa, N297G, V domains shown)
VH: QVPLVQSGAEVKKPGASVKVSCKASGYTFTGYYIHWVRQAPGQGLEWMGWINPESGGTDYSQRFQGRFTMTRDTSISTAYMELNRLRSDDTAVYYCAREATIFGMVIVPFDYWGQGTLVTVSS
VL: not shown
B2: 13H12.003 (antibody, human IgG1, kappa, N297G, V domains shown)
VH: B1 VH with N84S
VL: not shown
B3: 13H12.006 (antibody, human IgG1, kappa, N297G, V domains shown)
VH: B1 VH with F68V, N84S
VL: not shown
B4: 13H12 (antibody, human IgG1, kappa, N297G, V domains shown)
VH: B1 VH with E54D, N84S
VL: not shown
B5: 13H12.004 (antibody, human IgG1, kappa, N297G, V domains shown)
VH: B1 VH with E54D, F68V, N84S
VL: not shown
B6: 13H12.002 (antibody, human IgG1, kappa, N297G, V domains shown)
VH: B1 VH with F68V, N84S
VL: not shown
B7: 17H11.004.001 (antibody, human IgG1, kappa, N297G, V domains shown)
VH: QVQLQESGPGLVKPSETLSLTCTVSGGSISSYYWSWIRQPAGKGLEWIGRIYTSGSTNYNPSLKSRVTMSIDTSKNQFSLKLNSVTAADTAVYYCARDVAVAGFDYWGQGTLVTVSS
VL: DIQMTQSPSSVSASVGDRVTITCRASQGLIIWLAWYQQKPGKAPKLLIYAASSLQSGVPSRFSGSGSGTDFTLTISSLQPEDFATYYCQQTNSFPPTFGQGTKVEIKR
notes: also called iPS:359621; iPS:359623
B8: 2G10_LC1.003 (antibody, human IgG1, kappa, N297G, V domains shown)
VH: not shown
VL: EIVMTQSPATLSVSPGERATLSCRASQSVSSNLAWYQQKPGQAPRLLIYGAATRATGIPARFSGSGSGTEFTLTISSLQSEDFAVYYCQQYNNWPLTFGGGTKVEIKR
B9: 2G10_LC1.005 (antibody, human IgG1, kappa, N297G, V domains shown)
VH: not shown
VL: B8 VL
B10: 2G10_LC1.009 (antibody, human IgG1, kappa, N297G, V domains shown)
VH: not shown
VL: B8 VL with Q79E, S80P
B11: 2G10_LC1.010 (antibody, human IgG1, kappa, N297G, V domains shown)
VH: not shown
VL: B8 VL with Q79E, S80P
B12: 2G10_LC1.004 (antibody, human IgG1, kappa, N297G, V domains shown)
VH: QVQLVESGGGVVQPGRSLRLSCAASGFTFSNYGMHWVRQAPGEGLEWVAAIWFDASDKYYADSVKGRFTISRDNSKNTLYLQMNSLRAEDTAVYYCARDQAIFGVVPDYWGQGTLVTVSS
VL: B8 VL
B13: 2G10_LC1.007 (antibody, human IgG1, kappa, N297G, V domains shown)
VH: not shown
VL: B8 VL with Q79E, S80P, W94F
B14: 2G10_LC1 (antibody, human IgG1, kappa, N297G, V domains shown)
VH: B12 VH with A55G
VL: B8 VL with F62V
B15: 2G10_LC1.008 (antibody, human IgG1, kappa, N297G, V domains shown)
VH: not shown
VL: B8 VL with Q79E, S80P, W94Y
B16: 4H9.004.006 (antibody, human IgG1, kappa, N297G, V domains shown)
VH: not shown
VL: DIQMTQSPSSLSASVGDRVTITCRASQGIRNELGWYQQKPGKAPKLLIYGASSLQSGVPSRFSGSGSGTEFTLTISSLQPEDFVTYYCLQHNSYPFTFGQGTKVDVKR
B17: 4H9.004 (antibody, human IgG1, kappa, N297G, V domains shown)
VH: QVQLVESGGGVVQPGRSLRLSCAASGFTFSYFGMHWVRQAPGKGLEWVAVIWYDGSNKYYADSVKGRFTISRDNSKNTLYLQMNSLRAEDTAVYYCARDGTIFGVLLGDYWGQGTLVTVSS
VL: B16 VL with L46R, Q100P
B18: 18E3 (antibody, human IgG1, kappa, N297G)
heavy: not shown
light: EIVLTQSPGTLSLSPGERATLSCRASQSISYSYLAWYQQKPGQAPRLLIYGASSRATGIPDRFSGSGSGTDFTLTISRQEPDDFAVYYCQQYGSSPLTFGGGTKVEIKRTVAAPSVFIFPPSDEQLKSGTASVVCLLNNFYPREAKVQWKVDNALQSGNSQESVTEQDSKDSTYSLSSTLTLSKADYEKHKVYACEVTHQGLSSPVTKSFNRGEC
B19: 18E3.004 (antibody, human IgG1, kappa, N297G)
heavy: not shown
light: B18 light with Q79L
B20: 18E3.007 (antibody, human IgG1, kappa, N297G)
heavy: not shown
light: B18 light
B21: 18E3.008 (antibody, human IgG1, kappa, N297G)
heavy: not shown
light: B18 light
B22: 18E3.005 (antibody, human IgG1, kappa, N297G)
heavy: not shown
light: B18 light with Q79L
B23: 18E3.006 (antibody, human IgG1, kappa, N297G)
heavy: not shown
light: B18 light with Q79L
B24: 18E3.003 (antibody, human IgG1, kappa, N297G)
heavy: not shown
light: B18 light
B25: 18E3.002 (antibody, human IgG1, kappa, N297G)
heavy: not shown
light: B18 light with Q79L
B26: 12H11.002 (antibody, human IgG1, kappa, N297G, V domains shown)
VH: QVPLVQSGAEVKKPGASVKVSCKASGYTFTGYYIHWVRQAPGQGLEWMGWISPNQGETNYAQKFQDRVTMTRDTSISTAYMELSRLRSDDTAVYYCAREATIFGMLIVPFDYWGQGTLVTVSS
VL: DIVMTQSPDSLSVSLGERATINCKSSQSVLSSSNNKNYLAWYQQKPGQPPNLLIYWTSTRDSGVPDRFSGSGSGTDFTLTINSLQAEDVAVYYCQQYYRTPWTFGQGTKVEIKR
B27: 12H11.003 (antibody, human IgG1, kappa, N297G, V domains shown)
VH: B26 VH with E57D
VL: B26 VL
B28: 11C1.006 (antibody, human IgG1, kappa, N297G, V domains shown)
VH: B26 VH with E46V, Q55S, E57D, N59S, Y95F, A97T
VL: not shown
B29: 11C1.004 (antibody, human IgG1, kappa, N297G, V domains shown)
VH: B26 VH with E46V, Q55S, N59S, Y95F
VL: B26 VL
B30: 11C1.002 (antibody, human IgG1, kappa, N297G, V domains shown)
VH: B26 VH with E46V, Q55S, N59S, Y95F
VL: not shown
B31: 12H11.006 (antibody, human IgG1, kappa, N297G, V domains shown)
VH: B26 VH with Q55N, E57D
VL: B26 VL
B32: 11C1.003 (antibody, human IgG1, kappa, N297G, V domains shown)
VH: B26 VH with E46V, Q55S, E57D, N59S, Y95F
VL: not shown
B33: 12H11.005 (antibody, human IgG1, kappa, N297G, V domains shown)
VH: B26 VH with Q55N
VL: B26 VL
B34: 11C1.005 (antibody, human IgG1, kappa, N297G, V domains shown)
VH: B26 VH with E46V, Q55S, N59S, Y95F, A97T
VL: not shown
B35: 12H11 (antibody, human IgG1, kappa, N297G, V domains shown)
VH: B26 VH with Q55N, E57D, A97T
VL: B26 VL
B36: 11C1.007 (antibody, human IgG1, kappa, N297G, V domains shown)
VH: B26 VH with E46V, Q55S, N59S, Y95F, A97T
VL: B26 VL
B37: 11C1 (antibody, human IgG1, kappa, N297G, V domains shown)
VH: B26 VH with E46V, Q55S, E57D, N59S, Y95F, A97T
VL: B26 VL
B38: 12H11.007 (antibody, human IgG1, kappa, N297G, V domains shown)
VH: B26 VH with E57D, A97T
VL: B26 VL
B39: 11C1.008 (antibody, human IgG1, kappa, N297G, V domains shown)
VH: B26 VH with E46V, Q55S, E57D, N59S, Y95F
VL: B26 VL

Each binder was assayed against T1, Rhesus GIPR (assay: cell-based or functional assay).

Row | Binder | Rhesus GIPR CAMP Assay (Conc. mAb @ 60% Inhibition in nM)
1 | B1 | 0.66 nM
2 | B2 | 0.83 nM
3 | B3 | 0.92 nM
4 | B4 | 0.67 nM
5 | B5 | 0.56 nM
6 | B6 | 0.95 nM
7 | B7 | 0.22 nM
8 | B8 | 0.85 nM
9 | B9 | 0.43 nM
10 | B10 | 0.71 nM
11 | B11 | 0.86 nM
12 | B12 | 0.58 nM
13 | B13 | 16.3 nM
14 | B14 | 0.67 nM
15 | B15 | 4 nM
16 | B16 | 0.35 nM
17 | B17 | 0.43 nM
18 | B18 | 0.25 nM
19 | B19 | 0.06 nM
20 | B20 | 0.24 nM

Row | Binder | Rhesus GIPR CAMP Assay (Conc. mAb @ 60% Inhibition in nM)
21 | B21 | 0.37 nM
22 | B22 | 0.1 nM
23 | B23 | 0.12 nM
24 | B24 | 0.12 nM
25 | B25 | 0.16 nM
26 | B26 | 0.45 nM
27 | B27 | 0.6 nM
28 | B28 | 0.51 nM
29 | B29 | 0.33 nM
30 | B30 | 0.39 nM
31 | B31 | 0.59 nM
32 | B32 | 0.48 nM
33 | B33 | 0.61 nM
34 | B34 | 0.42 nM
35 | B35 | 0.79 nM
36 | B36 | 0.4 nM
37 | B37 | 0.65 nM
38 | B38 | 0.56 nM
39 | B39 | 0.43 nM
